Laboratory results from US20080058636A1, “METHODS OF MYOCARDIAL IMAGING” (Epix Pharmaceuticals, Inc., priority 2005, published 2008).
Bridge positions count the residues as written; N and C are the ends. Square brackets hold non-standard residues; d marks the D form. Ends that are not written are not given here. Cha = N[C@@H](CC1CCCCC1)C(=O)O; GdT = GdDTPA-thiourea

molecular target: human collagen type I (acid soluble, extracted from placenta, Sigma C7774) (human) (UniProt P02452); assay: dried collagen assay, 5 uM each
Sequence (P02452 162-1218 limits assumed, chain 1 of 2): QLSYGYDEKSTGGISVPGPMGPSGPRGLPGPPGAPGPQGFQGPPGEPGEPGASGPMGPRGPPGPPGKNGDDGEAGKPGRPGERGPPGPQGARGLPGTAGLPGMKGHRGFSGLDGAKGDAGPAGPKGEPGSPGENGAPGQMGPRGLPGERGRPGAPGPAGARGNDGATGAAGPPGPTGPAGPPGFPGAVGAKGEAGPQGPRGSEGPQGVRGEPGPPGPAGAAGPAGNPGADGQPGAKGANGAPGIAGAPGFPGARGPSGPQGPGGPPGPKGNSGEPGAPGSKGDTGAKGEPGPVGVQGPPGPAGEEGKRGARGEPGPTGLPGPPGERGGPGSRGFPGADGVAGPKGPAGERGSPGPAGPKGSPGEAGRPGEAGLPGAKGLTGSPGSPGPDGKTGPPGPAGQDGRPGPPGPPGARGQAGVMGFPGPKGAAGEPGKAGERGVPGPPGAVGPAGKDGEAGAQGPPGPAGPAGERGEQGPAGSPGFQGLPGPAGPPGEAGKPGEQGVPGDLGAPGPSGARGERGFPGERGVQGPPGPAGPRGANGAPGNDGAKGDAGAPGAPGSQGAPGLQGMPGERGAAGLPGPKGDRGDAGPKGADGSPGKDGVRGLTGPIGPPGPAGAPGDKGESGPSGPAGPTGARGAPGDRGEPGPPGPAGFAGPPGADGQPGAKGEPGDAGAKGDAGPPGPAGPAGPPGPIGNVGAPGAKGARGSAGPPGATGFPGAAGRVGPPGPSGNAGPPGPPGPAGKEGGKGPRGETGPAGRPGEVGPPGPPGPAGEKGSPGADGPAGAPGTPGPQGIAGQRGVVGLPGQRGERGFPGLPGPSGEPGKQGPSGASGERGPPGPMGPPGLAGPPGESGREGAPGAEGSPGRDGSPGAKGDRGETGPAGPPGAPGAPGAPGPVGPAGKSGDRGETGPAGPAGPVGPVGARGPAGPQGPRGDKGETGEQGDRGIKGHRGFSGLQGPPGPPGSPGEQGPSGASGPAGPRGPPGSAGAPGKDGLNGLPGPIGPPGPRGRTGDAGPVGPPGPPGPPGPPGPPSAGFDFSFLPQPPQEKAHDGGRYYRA
Sequence (P08123 80-1119 limits assumed, chain 2 of 2, further chain): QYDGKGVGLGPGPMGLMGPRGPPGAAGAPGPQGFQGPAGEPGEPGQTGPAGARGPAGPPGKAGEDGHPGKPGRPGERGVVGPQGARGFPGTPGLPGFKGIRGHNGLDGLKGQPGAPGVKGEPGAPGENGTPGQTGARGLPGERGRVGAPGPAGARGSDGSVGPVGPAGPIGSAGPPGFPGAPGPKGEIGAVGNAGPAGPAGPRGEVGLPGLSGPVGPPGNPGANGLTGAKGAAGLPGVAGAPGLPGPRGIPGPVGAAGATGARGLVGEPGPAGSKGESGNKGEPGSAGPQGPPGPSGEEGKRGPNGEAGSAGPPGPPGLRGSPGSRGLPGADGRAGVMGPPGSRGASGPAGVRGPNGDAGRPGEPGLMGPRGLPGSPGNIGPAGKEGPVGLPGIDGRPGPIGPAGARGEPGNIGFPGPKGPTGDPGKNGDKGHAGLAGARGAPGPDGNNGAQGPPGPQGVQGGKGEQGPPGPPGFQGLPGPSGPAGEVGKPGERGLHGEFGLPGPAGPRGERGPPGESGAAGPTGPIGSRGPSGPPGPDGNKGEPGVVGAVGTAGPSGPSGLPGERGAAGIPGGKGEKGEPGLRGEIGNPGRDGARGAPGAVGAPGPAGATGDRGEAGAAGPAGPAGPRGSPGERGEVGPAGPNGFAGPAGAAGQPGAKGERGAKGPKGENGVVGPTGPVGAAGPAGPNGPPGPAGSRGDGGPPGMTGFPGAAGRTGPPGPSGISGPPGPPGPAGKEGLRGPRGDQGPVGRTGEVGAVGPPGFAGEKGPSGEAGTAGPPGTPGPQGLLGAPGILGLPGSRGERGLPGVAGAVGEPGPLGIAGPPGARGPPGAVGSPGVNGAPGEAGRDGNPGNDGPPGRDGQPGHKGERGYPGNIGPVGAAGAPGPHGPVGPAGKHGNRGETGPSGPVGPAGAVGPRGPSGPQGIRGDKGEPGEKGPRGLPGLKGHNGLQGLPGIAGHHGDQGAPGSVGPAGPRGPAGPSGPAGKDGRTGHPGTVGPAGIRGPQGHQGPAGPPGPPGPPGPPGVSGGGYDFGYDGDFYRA

Going from GQWHCTTLFPNHYCLYG [Compound ID 923] to GKWHCYTKFPYHYCVYY [Compound ID 1011], the Human binding rises from 28% to 94%.

First: GKWHCYTYFPYHYCLYG [Compound ID 964]
Second: GFKWHCTTYFPHHYCLYG [Compound ID 983]
The Human binding of the first is higher: 88% for the first, 58% for the second.

Compared with GKWYCTTYFPHHYCLYG [Compound ID 990], GKWHCYTKFPHHYCVYG [Compound ID 978] is higher in Human binding: 59% for the first, 64% for the second.

Going from GKWHCTTYFPHWYCLYG [Compound ID 948] to GKWHCYTYFPHHYCVYGK [Compound ID 974], the Human binding rises from 25% to 71%.

First: GHKWHCTTYFPHHYCLYG [Compound ID 984]
Second: GdT-GQWHCYTKFPHHYCLYGK (disulfide 5-14 (inferred); not fully specified (residues 8, 18, C-terminus)) [Compound ID 993]
The Human binding of the first is lower: 67% for the first, 75% for the second.

Compared with AWHCTTRFPAHYCLYG [Compound ID 937], GQWKCTTRFPHHYCLYG [Compound ID 956] is higher in Human binding: 11% for the first, 39% for the second.

Going from GKWHCTTYFPHYYCLYG [Compound ID 947] to GYKWHCTTYFPHHYCLYG [Compound ID 981], the Human binding rises from 64% to 73%.

Compared with AWHCTTLFPHHYCLYG [Compound ID 909], PPWHCTTLFPHHYCLYG [Compound ID 912] is higher in Human binding: 14% for the first, 20% for the second.

Compared with GdT-GQWHCYTYFPHHYCLYGK (disulfide 5-14 (inferred); not fully specified (residue 18, C-terminus)) [Compound ID 994], GKWHCYTYFPHHYCLYVK [Compound ID 989] is lower in Human binding: 86% for the first, 67% for the second.

First: GQWHCTTRFAHHYCLYG [Compound ID 938]
Second: GAWHCTTYFPHHYCLYG [Compound ID 915]
The Human binding of the first is higher: 16% for the first, 15% for the second.

Going from GKWHCYTYFPHHYCLYFK [Compound ID 985] to GVKWHCTTYFPHHYCLYG [Compound ID 982], the Human binding falls from 56% to 40%.

First: GSWHCTTLFPHHYCLYG [Compound ID 911]
Second: GKWHCYTYFPHHYCVYY [Compound ID 945]
The Human binding of the first is lower: 15% for the first, 83% for the second.

First: GKWHCYKYFPHHYCLYG [Compound ID 991]
Second: GKWHCTTYFPYHYCLYG [Compound ID 946]
The Human binding of the first is lower: 23% for the first, 71% for the second.

Compared with GQWHCTTLFPHHYCIYG [Compound ID 927], GAWHCTTLFPHHYCLYG [Compound ID 908] is lower in Human binding: 64% for the first, 20% for the second.

Compared with GKWHCTTYFPHHYCVYG [Compound ID 942], GKWHCYTYFPHHYCVYYK [Compound ID 975] is lower in Human binding: 78% for the first, 70% for the second.

Going from GKWHCYTYFPYHYCVYG [Compound ID 963] to GKWHCYTKFPHHYCLYGK [Compound ID 995], the Human binding falls from 82% to 51%.

Going from KKGQWHCTTYFPHHYCLYG [Compound ID 960] to GKWHCTTYFPHHYCLYY [Compound ID 949], the Human binding rises from 30% to 72%.

Compared with GKWHCTTLFPHHVCLYG [Compound ID 966], GQWHCTTRFPKHYCLYG [Compound ID 958] is higher in Human binding: 14% for the first, 45% for the second.

Going from GQWHCTTFFPHHYCLYG [Compound ID 929] to GKWHCTTYFPHHFCLYG [Compound ID 972], the Human binding falls from 27% to 3%.

First: GKWHCTTKFPHHYCLYY [Compound ID 980]
Second: GQWHCTTRFPHHYCFYG [Compound ID 931]
The Human binding of the first is higher: 85% for the first, 70% for the second.

Going from GKWHCTTLFPHHYCLYG [Compound ID 930] to GKWHCYTKFPHHYCVYYY [Compound ID 1010], the Human binding rises from 31% to 92%.

Compared with GQWHCTTLFPHNYCLYG [Compound ID 924], GQWHCTKRFPHHYCLYG [Compound ID 940] is lower in Human binding: 24% for the first, 9% for the second.

Going from GKWHCTTYFPHHVCLYG [Compound ID 965] to GQWHCKTRFPHHYCLYG [Compound ID 957], the Human binding rises from 26% to 42%.

First: GKWHCTTYFPHHYCLYYK [Compound ID 976]
Second: GDWHCTTLFPHHYCLYG [Compound ID 910]
The Human binding of the first is higher: 62% for the first, 13% for the second.

First: GQWHCTT[Cha]FPHHYCLYG (disulfide 5-14 (inferred)) [Compound ID 918]
Second: GKWHCTTYFPTHYCLYG [Compound ID 962]
The Human binding of the first is lower: 19% for the first, 20% for the second.

Going from GQWHCTYLFPHHYCLYG [Compound ID 921] to GKWHCYTKFPHHYCVYY [Compound ID 979], the Human binding rises from 68% to 87%.

First: GQWHCTTIFPHHYCLYG [Compound ID 917]
Second: GKWHCYTYFPHHYCLYGK [Compound ID 996]
The Human binding of the first is lower: 12% for the first, 76% for the second.

Going from GQWNCTTLFPHHYCLYG [Compound ID 922] to GQWHCTDRFPHHYCLYG [Compound ID 936], the Human binding falls from 68% to 9%.

For GQWHCTTLFPHHYCVYG [Compound ID 928], the Human binding was 73%.

molecular target: rat collagen (acid soluble, type I, rat tail, Upstate 08-115) (rat) (UniProt P02454); assay: dried collagen assay, 5 uM each
Sequence (P02454 152-1207, chain 1 of 2): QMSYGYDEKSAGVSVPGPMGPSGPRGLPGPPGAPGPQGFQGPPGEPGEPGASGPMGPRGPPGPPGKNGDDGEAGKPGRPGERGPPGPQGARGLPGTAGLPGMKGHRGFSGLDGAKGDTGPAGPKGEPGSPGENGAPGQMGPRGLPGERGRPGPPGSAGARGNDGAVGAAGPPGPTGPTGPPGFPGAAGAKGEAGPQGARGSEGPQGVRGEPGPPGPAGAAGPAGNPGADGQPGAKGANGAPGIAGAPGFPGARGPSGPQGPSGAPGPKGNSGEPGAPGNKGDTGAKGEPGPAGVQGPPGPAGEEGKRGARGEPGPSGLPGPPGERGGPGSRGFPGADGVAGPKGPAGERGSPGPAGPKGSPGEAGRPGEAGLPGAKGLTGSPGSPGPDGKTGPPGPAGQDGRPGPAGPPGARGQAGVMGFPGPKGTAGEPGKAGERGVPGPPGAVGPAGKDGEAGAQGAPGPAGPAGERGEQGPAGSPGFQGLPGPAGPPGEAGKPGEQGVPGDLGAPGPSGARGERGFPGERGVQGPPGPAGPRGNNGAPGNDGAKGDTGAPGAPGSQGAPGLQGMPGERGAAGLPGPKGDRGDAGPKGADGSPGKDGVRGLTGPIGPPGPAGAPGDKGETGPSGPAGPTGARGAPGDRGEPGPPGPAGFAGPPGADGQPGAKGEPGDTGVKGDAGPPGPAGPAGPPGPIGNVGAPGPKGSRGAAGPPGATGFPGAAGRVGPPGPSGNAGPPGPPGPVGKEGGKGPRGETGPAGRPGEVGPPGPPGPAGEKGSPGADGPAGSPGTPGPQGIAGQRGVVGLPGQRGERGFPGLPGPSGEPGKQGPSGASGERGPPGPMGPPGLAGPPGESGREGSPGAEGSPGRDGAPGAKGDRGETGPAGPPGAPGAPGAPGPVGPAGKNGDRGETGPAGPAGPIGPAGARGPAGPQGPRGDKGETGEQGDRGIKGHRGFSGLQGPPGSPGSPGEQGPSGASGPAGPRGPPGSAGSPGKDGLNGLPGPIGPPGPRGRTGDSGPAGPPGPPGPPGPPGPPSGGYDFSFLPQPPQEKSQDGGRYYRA
Sequence (P02466 86-1125, chain 2 of 2, further chain): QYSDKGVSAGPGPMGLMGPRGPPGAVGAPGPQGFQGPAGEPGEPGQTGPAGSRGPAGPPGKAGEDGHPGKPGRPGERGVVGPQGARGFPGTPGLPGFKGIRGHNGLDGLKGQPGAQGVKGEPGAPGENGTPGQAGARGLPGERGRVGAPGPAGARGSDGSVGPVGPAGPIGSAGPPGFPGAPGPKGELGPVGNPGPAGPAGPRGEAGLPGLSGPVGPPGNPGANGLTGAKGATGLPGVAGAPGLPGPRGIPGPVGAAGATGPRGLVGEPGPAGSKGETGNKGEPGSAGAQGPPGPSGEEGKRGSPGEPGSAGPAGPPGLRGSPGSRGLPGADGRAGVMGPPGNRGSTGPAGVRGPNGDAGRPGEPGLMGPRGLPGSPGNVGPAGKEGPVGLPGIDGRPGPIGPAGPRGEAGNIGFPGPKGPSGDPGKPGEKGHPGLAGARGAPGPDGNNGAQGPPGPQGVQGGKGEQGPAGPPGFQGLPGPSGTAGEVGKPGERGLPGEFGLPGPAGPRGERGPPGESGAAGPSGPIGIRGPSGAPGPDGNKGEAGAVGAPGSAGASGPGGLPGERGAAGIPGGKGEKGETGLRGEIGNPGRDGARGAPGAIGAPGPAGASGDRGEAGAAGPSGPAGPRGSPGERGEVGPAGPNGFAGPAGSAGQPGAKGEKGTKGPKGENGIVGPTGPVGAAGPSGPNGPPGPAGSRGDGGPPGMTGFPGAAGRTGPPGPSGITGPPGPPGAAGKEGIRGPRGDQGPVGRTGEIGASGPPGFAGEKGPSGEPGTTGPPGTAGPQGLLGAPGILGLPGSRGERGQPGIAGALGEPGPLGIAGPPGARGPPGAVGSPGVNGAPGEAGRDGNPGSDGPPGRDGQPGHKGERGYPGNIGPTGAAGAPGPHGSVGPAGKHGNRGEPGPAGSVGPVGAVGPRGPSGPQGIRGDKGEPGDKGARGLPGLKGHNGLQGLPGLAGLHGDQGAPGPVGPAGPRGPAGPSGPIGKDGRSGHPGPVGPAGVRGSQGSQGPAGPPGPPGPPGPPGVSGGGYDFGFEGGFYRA

Compared with GQWHCTTLFPNHYCLYG [Compound ID 923], GKWHCYTKFPYHYCVYY [Compound ID 1011] is higher in Rat binding: 10% for the first, 93% for the second.

Going from GKWHCYTYFPYHYCLYG [Compound ID 964] to GFKWHCTTYFPHHYCLYG [Compound ID 983], the Rat binding falls from 86% to 59%.

Going from GKWYCTTYFPHHYCLYG [Compound ID 990] to GKWHCYTKFPHHYCVYG [Compound ID 978], the Rat binding rises from 62% to 66%.

First: GKWHCTTYFPHWYCLYG [Compound ID 948]
Second: GKWHCYTYFPHHYCVYGK [Compound ID 974]
The Rat binding of the first is lower: 17% for the first, 69% for the second.

Compared with GHKWHCTTYFPHHYCLYG [Compound ID 984], GdT-GQWHCYTKFPHHYCLYGK (disulfide 5-14 (inferred); not fully specified (residues 8, 18, C-terminus)) [Compound ID 993] is higher in Rat binding: 69% for the first, 70% for the second.

Compared with AWHCTTRFPAHYCLYG [Compound ID 937], GQWKCTTRFPHHYCLYG [Compound ID 956] is higher in Rat binding: 14% for the first, 15% for the second.

First: GKWHCTTYFPHYYCLYG [Compound ID 947]
Second: GYKWHCTTYFPHHYCLYG [Compound ID 981]
The Rat binding of the first is lower: 57% for the first, 81% for the second.

AWHCTTLFPHHYCLYG [Compound ID 909] and PPWHCTTLFPHHYCLYG [Compound ID 912] are the same in Rat binding: 0% for the first, 0% for the second.

Compared with GdT-GQWHCYTYFPHHYCLYGK (disulfide 5-14 (inferred); not fully specified (residue 18, C-terminus)) [Compound ID 994], GKWHCYTYFPHHYCLYVK [Compound ID 989] is lower in Rat binding: 84% for the first, 74% for the second.

Compared with GQWHCTTRFAHHYCLYG [Compound ID 938], GAWHCTTYFPHHYCLYG [Compound ID 915] is lower in Rat binding: 13% for the first, 0% for the second.

Compared with GKWHCYTYFPHHYCLYFK [Compound ID 985], GVKWHCTTYFPHHYCLYG [Compound ID 982] is lower in Rat binding: 68% for the first, 47% for the second.

Going from GSWHCTTLFPHHYCLYG [Compound ID 911] to GKWHCYTYFPHHYCVYY [Compound ID 945], the Rat binding rises from 0% to 82%.

Going from GKWHCYKYFPHHYCLYG [Compound ID 991] to GKWHCTTYFPYHYCLYG [Compound ID 946], the Rat binding rises from 11% to 68%.

Compared with GQWHCTTLFPHHYCIYG [Compound ID 927], GAWHCTTLFPHHYCLYG [Compound ID 908] is lower in Rat binding: 63% for the first, 0% for the second.

Compared with GKWHCTTYFPHHYCVYG [Compound ID 942], GKWHCYTYFPHHYCVYYK [Compound ID 975] is lower in Rat binding: 67% for the first, 64% for the second.

Compared with GKWHCYTYFPYHYCVYG [Compound ID 963], GKWHCYTKFPHHYCLYGK [Compound ID 995] is lower in Rat binding: 91% for the first, 42% for the second.

Going from KKGQWHCTTYFPHHYCLYG [Compound ID 960] to GKWHCTTYFPHHYCLYY [Compound ID 949], the Rat binding rises from 34% to 79%.

Going from GKWHCTTLFPHHVCLYG [Compound ID 966] to GQWHCTTRFPKHYCLYG [Compound ID 958], the Rat binding rises from 8% to 33%.

Going from GQWHCTTFFPHHYCLYG [Compound ID 929] to GKWHCTTYFPHHFCLYG [Compound ID 972], the Rat binding falls from 34% to 0%.

Compared with GKWHCTTKFPHHYCLYY [Compound ID 980], GQWHCTTRFPHHYCFYG [Compound ID 931] is higher in Rat binding: 80% for the first, 83% for the second.

Going from GKWHCTTLFPHHYCLYG [Compound ID 930] to GKWHCYTKFPHHYCVYYY [Compound ID 1010], the Rat binding rises from 42% to 89%.

First: GQWHCTTLFPHNYCLYG [Compound ID 924]
Second: GQWHCTKRFPHHYCLYG [Compound ID 940]
The Rat binding of the first is lower: 1% for the first, 8% for the second.

Going from GKWHCTTYFPHHVCLYG [Compound ID 965] to GQWHCKTRFPHHYCLYG [Compound ID 957], the Rat binding rises from 11% to 39%.

Going from GKWHCTTYFPHHYCLYYK [Compound ID 976] to GDWHCTTLFPHHYCLYG [Compound ID 910], the Rat binding falls from 57% to 0%.

Compared with GQWHCTT[Cha]FPHHYCLYG (disulfide 5-14 (inferred)) [Compound ID 918], GKWHCTTYFPTHYCLYG [Compound ID 962] is higher in Rat binding: 0% for the first, 10% for the second.

Compared with GQWHCTYLFPHHYCLYG [Compound ID 921], GKWHCYTKFPHHYCVYY [Compound ID 979] is higher in Rat binding: 35% for the first, 86% for the second.

Compared with GQWHCTTIFPHHYCLYG [Compound ID 917], GKWHCYTYFPHHYCLYGK [Compound ID 996] is higher in Rat binding: 0% for the first, 67% for the second.

Going from GQWNCTTLFPHHYCLYG [Compound ID 922] to GQWHCTDRFPHHYCLYG [Compound ID 936], the Rat binding falls from 58% to 5%.

GQWHCTTLFPHHYCVYG [Compound ID 928] was tested, and the Rat binding was 80%.
